In the supplement of paper PMC7125110:
± gives the standard error. For some assays here: This sample holds only a part of the variants without activity.

B1: glmS ribozyme (parent)
chain: AUAAAAGCGCCAGAACUACAGAAAUGUAGUUGACGAGGAGGAGGUUUAUCGAAUUUUCGGCGGAUGCCUCCAAA

Columns and labels:
Details in all cases: with glucosamine-6-phosphate
[1] = variants of: B1; assay: kcat; higher = faster cleavage; RNA array
Procedure, shortened: (§1)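 Barcoded ribozyme variants on sequenced MiSeq chips were transcribed in situ by E. coli RNA polymerase and followed at 37 °C through a hybridised Cy3 probe. Glucosamine-6-phosphate at 40 μM to 10 mM in HEPES/KCl/Mg(OAc)2 buffer was flowed in, and tiles were imaged over ~14 h. Signals were normalised to baseline and to non-cleaving reference variants, and per-tile medians were fit to one- or two-exponential decays to give kobs. Weighted Michaelis–Menten fits across concentrations gave kcat and KM.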

[2] = variants of: B1; assay: self-cleavage kobs at 40 uM GlcN6P; higher = faster cleavage; RNA array
Procedure, shortened: as §1

[3] = variants of: B1; assay: self-cleavage kobs at 160 uM GlcN6P; higher = faster cleavage; RNA array
Procedure, shortened: as §1

[4] = variants of: B1; assay: self-cleavage kobs at 640 uM GlcN6P; higher = faster cleavage; RNA array
Procedure, shortened: as §1

[5] = variants of: B1; assay: self-cleavage kobs at 2500 uM GlcN6P; higher = faster cleavage; RNA array
Procedure, shortened: as §1

[6] = variants of: B1; assay: self-cleavage kobs at 10000 uM GlcN6P; higher = faster cleavage; RNA array
Procedure, shortened: as §1

[7] = variants of: B1; assay: KM; higher = weaker cofactor use; RNA array
Procedure, shortened: as §1

| Variant | kcat [1] [s⁻¹] | self-cleavage kobs at 40 uM GlcN6P [2] [s⁻¹] | self-cleavage kobs at 160 uM GlcN6P [3] [s⁻¹] | self-cleavage kobs at 640 uM GlcN6P [4] [s⁻¹] | self-cleavage kobs at 2500 uM GlcN6P [5] [s⁻¹] | self-cleavage kobs at 10000 uM GlcN6P [6] [s⁻¹] | KM [7] [µM] |
| --- | --- | --- | --- | --- | --- | --- | --- |
| G29A U56A | 0.00321 ± 0.0012 | 4.94e-05 ± 9.7e-06 | 0.000108 ± 2.2e-05 | 0.000389 ± 7.9e-05 | 0.000941 ± 0.00015 | 0.00255 ± 0.00036 |  |
| A14U C50U C58U G60U | < 1e-05 | < 1e-05 |  | < 1e-05 |  |  |  |
| U31C U47C | 0.000503 ± 6.2e-05 |  |  | 0.000111 ± 2e-05 | 0.000269 ± 5.7e-05 | 0.00042 ± 0.00011 | 2160 ± 430 |
| C16A C34U C71U | 1.28e-05 ± 4.6e-06 |  | < 1e-05 |  |  |  |  |
| U31G G41U | 0.000641 ± 0.00019 |  | 6.71e-05 ± 1.8e-05 | 0.000154 ± 6.3e-05 | 0.000806 ± 0.00017 | 0.000505 ± 0.0001 |  |
| G63A U69G | 6.54e-05 ± 2.8e-05 |  | 8.37e-05 ± 2.7e-05 | 0.000116 ± 3.3e-05 | 5.94e-05 ± 2.5e-05 |  |  |
| A15U G37C C70G | 2.75e-05 ± 1.1e-05 |  |  |  |  |  |  |
| G38U U55G | < 1e-05 |  | < 1e-05 |  |  |  |  |
| U30A G32U | 0.000735 ± 0.00018 |  | 3.89e-05 ± 1.7e-05 | 7.63e-05 ± 1.5e-05 | 0.000275 ± 4.2e-05 | 0.000475 ± 9.5e-05 | 4830 ± 1700 |
| A12G A52U | < 1e-05 | < 1e-05 |  | < 1e-05 |  |  |  |
| C67G U69A | 1.14e-05 ± 5.3e-06 |  |  |  |  |  |  |
| U55G G60C | < 1e-05 |  | < 1e-05 |  |  |  |  |
| U30A U49G C70U | 0.000102 ± 2.6e-05 |  |  |  |  | 8.4e-05 ± 2e-05 |  |
| G29U C34G | < 1e-05 | < 1e-05 |  |  |  | < 1e-05 |  |
| A52U A53G | 0.000144 ± 7.6e-06 | < 1e-05 |  | 3.11e-05 ± 1.3e-05 | 6.31e-05 ± 9.5e-06 | 0.000111 ± 1e-05 | 2980 ± 430 |
| A14G A23C A64U | 0.000287 ± 3.5e-05 |  |  | 8.79e-05 ± 2.3e-05 | 0.000151 ± 4.3e-05 | 0.00026 ± 5.2e-05 | 1610 ± 460 |
| C68A C71A | < 1e-05 |  | < 1e-05 |  |  | < 1e-05 |  |
| A15C | 0.011 ± 0.00069 | 0.000227 ± 4.1e-06 | 0.00074 ± 5.5e-05 | 0.00248 ± 0.0001 |  | 0.00932 ± 0.00026 | 1940 ± 150 |
| G41C A64G | 0.000146 ± 1.2e-05 |  |  | 3.48e-05 ± 8.4e-06 | 0.000107 ± 1.8e-05 | 0.000122 ± 8.8e-06 | 1760 ± 510 |

| Variant | kcat [1] [s⁻¹] | self-cleavage kobs at 40 uM GlcN6P [2] [s⁻¹] | self-cleavage kobs at 160 uM GlcN6P [3] [s⁻¹] | self-cleavage kobs at 640 uM GlcN6P [4] [s⁻¹] | self-cleavage kobs at 2500 uM GlcN6P [5] [s⁻¹] | self-cleavage kobs at 10000 uM GlcN6P [6] [s⁻¹] | KM [7] [µM] |
| --- | --- | --- | --- | --- | --- | --- | --- |
| G62A U69A | 3.46e-05 ± 8.1e-06 |  |  |  |  |  |  |
| A15C C70G | 7.11e-05 ± 7.6e-06 |  | 3.9e-05 ± 9.7e-06 | 6.25e-05 ± 8.5e-06 | 8.13e-05 ± 1e-05 | 5.86e-05 ± 9.3e-06 |  |
| C50A C61U C70U | 3.88e-05 ± 1.2e-05 |  |  |  |  |  |  |
| A52U | 0.000465 ± 1.7e-05 |  | 2.13e-05 ± 1.9e-06 | 8.16e-05 ± 1.8e-06 | 0.000223 ± 4.8e-06 | 0.000355 ± 5.5e-06 | 2960 ± 200 |
| U30C A53G | 0.000411 ± 4.1e-05 |  |  | 9.02e-05 ± 1.4e-05 | 0.000252 ± 3.6e-05 | 0.000328 ± 3.8e-05 | 2120 ± 440 |
| A14G C16G | 0.0069 ± 0.0022 | 0.000569 ± 8.6e-05 | 0.00113 ± 0.00027 | 0.00514 ± 0.0008 | 0.00397 ± 0.0011 | 0.00854 ± 0.0016 |  |
| G66A C67U | 0.00255 ± 0.00091 | 0.000173 ± 2.6e-05 | 0.000398 ± 6.5e-05 | 0.00134 ± 0.0002 | 0.0016 ± 0.0003 | 0.00498 ± 0.00098 |  |
| G32A A64C | 1.13e-05 ± 9e-07 |  |  |  |  |  | 1760 ± 490 |
| C11U A14U | 0.00134 ± 0.00035 |  | 9.95e-05 ± 1.2e-05 | 0.000266 ± 3.5e-05 | 0.00104 ± 0.00013 | 0.000984 ± 0.00014 | 2130 ± 810 |
| G29C U47C | 0.000131 ± 7.3e-06 |  |  | 3.72e-05 ± 1.8e-05 | 7.73e-05 ± 1.5e-05 | 0.000112 ± 2.7e-05 | 1730 ± 250 |
| C50A C70A | 4.02e-05 ± 1.1e-05 |  | 3.47e-05 ± 1.5e-05 | 3.8e-05 ± 1.3e-05 | 5.27e-05 ± 1e-05 |  |  |
| C50A C58G | < 1e-05 |  |  |  |  | < 1e-05 |  |
| A15U U45C | 0.000662 ± 6.5e-05 |  |  | 6.91e-05 ± 1.5e-05 | 0.000187 ± 4.3e-05 | 0.000419 ± 4.9e-05 | 5870 ± 1000 |
| U47A G59A | 8.22e-05 ± 1.1e-05 | < 1e-05 |  |  | 3.14e-05 ± 1.2e-05 | 6.07e-05 ± 1.8e-05 | 3740 ± 1100 |
| G40A G43C | < 1e-05 |  |  | < 1e-05 |  |  |  |
| G37U U69C | 1.14e-05 ± 5.4e-06 |  | < 1e-05 |  |  | < 1e-05 |  |
| G29A A53G | 0.00571 ± 0.0021 | 0.000136 ± 3.6e-05 | 0.000249 ± 4.3e-05 | 0.000915 ± 0.00019 | 0.00162 ± 0.00059 | 0.00483 ± 0.00087 | 3380 ± 1700 |
| A12C C70A | 0.000198 ± 2.9e-05 |  |  | 6.98e-05 ± 1e-05 | 0.000174 ± 1.9e-05 | 0.000162 ± 2e-05 | 1030 ± 390 |
